The text below walks through data of patent US6699683B1, “Active site of human gamma glutamy hydrolase” (Health Research Incorporated, priority 1996, dated 2004).

What all share (format): biochemical
Data set [1] has as its target T1, human gamma glutamyl hydrolase (hGH) (Homo sapiens, UniProt Q92820, C134A).
T1 construct: A cDNA encoding the 294 amino acid mature form of hGH protein with an N-terminal methionine preceding the first arginine residue; added N-terminal methionine (start codon) (N); made in house; host or cells: E. coli BL21(DE3)pLysS, pET-24a (pET-hGH)
T1 sequence (Q92820 with tags, fused parts or gaps C134A): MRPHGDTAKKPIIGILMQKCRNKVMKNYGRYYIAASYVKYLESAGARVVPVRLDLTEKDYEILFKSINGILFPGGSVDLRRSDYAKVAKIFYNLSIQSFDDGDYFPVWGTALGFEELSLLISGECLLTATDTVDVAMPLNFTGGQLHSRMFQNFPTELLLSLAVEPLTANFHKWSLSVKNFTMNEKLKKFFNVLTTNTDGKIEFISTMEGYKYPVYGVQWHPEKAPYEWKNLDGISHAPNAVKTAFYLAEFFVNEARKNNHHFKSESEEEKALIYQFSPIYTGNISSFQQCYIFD
The experiment in a line: hGH activity assay with 4-NH2-10-CH3PteGlu2 as substrate (Km, Vmax, specific activity) of E. coli-expressed purified proteins. The note with it: assayed with either 4-NH2-10-CH3PteGlu2 or the better substrate 4-NH2-10-CH3PteGlu. The procedure: (§1) Mutant plasmids were used to transform E. colistrain BL21(DE3)pLysS to kanamycin resistance. Cultures (20 ml) were grown for 16 hours at 37° C., 225 rpm in tryptone-phosphate broth (Moore et al. 1993), containing 30 μg/ml kanamycin and 34 μg/ml chloramphenicol. An aliquot (6 ml) of this culture was used to inoculate 500 ml of the same medium. Cultures were incubated at 27° C., 225 rpm until the OD600nm was 0.5-0.6. Isopropyl β-D-thiogalactoside (IPTG) was added to a final concentration of 1 mM and cultures were incubated for a further 3 hours. Cells were harvested by centrifugation and stored at −80° C. Cells from 1 liter of broth were resuspended in 50 ml of 50 mM Tris/HCl pH 7.5 buffer containing 500 mM NaCl and Complete protease inhibitor cocktail (Boehringer Mannheim, Indianapolis, Ind.). The mixture was sonicated and clarified by centrifugation at 20,000 g for 30 minutes at 4° C. A 20-60% ammonium sulfate precipitate was resuspended in 50 mM sodium acetate, pH 5.8, 1 mM octyl-β-D-glucoside (OBG) and 5% glycerol (buffer A). After dialysis at 4° C. against buffer A and clarification by centrifugation at 30,000 g, 4° C. for 120 minutes, the dialysate was applied in two aliquots to a Protein Pak SP colummn (1.0 cm×10 cm, Waters Division of Millipore Corp., Milford, Mass.) equilibrated in buffer A. The protein was eluted (1 ml/min) with a linear gradient in buffer A of 0 to 1M NaCl over 60 minutes. Fractions were assayed for hGH activity or for hGH protein by Western blot. Fractions containing hGH were pooled and frozen at −80° C. Wildtype hGH and the C19A, C110A, and C290A mutants eluted as two peaks whereas the C124A mutant eluted as a single peak coincident with the first peak for the other hGH proteins. […] There was 8-10 times more hGH protein in peak 1 than in peak 2. A statistically significant amount (40-82%) of enzyme activity of proteins purified on the SP column was lost when stored either at 4° C. or at −80° C. Thawed aliquots of peak 1 were incubated for 2 hours at 4° C. with 2 ml of pHMB agarose (0.8 μmole/ml agarose) (Sigma Chemical, St. Louis, Mo.) equilibrated in 50 mM sodium acetate pH 5.8, 20 mM OBG, 500 mM NaCl (buffer B). The matrix was poured into a column (0.75 cm×4.5 cm) and washed with buffer B. hGH protein was eluted with buffer B containing additionally 10 mM dithiothreitol and 50 mM β-mercaptoethanol. EDTA (1 mM final) was added to each fraction to inhibit remaining proteases. Fractions containing hGH were pooled and stored at −80° C.
(§2) Km and Vmax activities were measured using variable 4-NH2-10-CH3PteGlu2 substrate concentrations. Specific activities were measured using 200 μM 4-NH2-10-CH3PteGlu2 for 5 minutes.

Data set [2] concerns human gamma glutamyl hydrolase (hGH). Described as above. The procedure:
as §1, §2

For data set [3] the test system is unchanged. The experiment in a line: Activity of baculovirus-expressed hGH mutants on methotrexate polyglutamates. The note with it: mutants expressed in the baculovirus system. From the text: This model for the active site of hGH has been tested by preparing the Cys110Ala, His220Ala, Glu222Ala, His171Ala, and His171Asn mutants of hGH. The mutants were expressed in the baculovirus system used for active hGH to facilitate the rapid expression and purification of the proteins. The mutant proteins were characterized for activity on methotrexate polyglutamates. […] The role of His171 in hGH has been examined by preparing the mutant His171Ala and the more conservative mutation His171Asn.

In data set [4] the target is T2, human gamma glutamyl hydrolase (hGH) (Homo sapiens, UniProt Q92820, C134A).
T2 construct: A cDNA encoding the 294 amino acid mature form of hGH protein with an N-terminal methionine preceding the first arginine residue; added N-terminal methionine (start codon) (N); made in house; host or cells: E. coli BL21(DE3)pLysS, pET-24a (pET-hGH)
T2 sequence (Q92820 25-318 C134A): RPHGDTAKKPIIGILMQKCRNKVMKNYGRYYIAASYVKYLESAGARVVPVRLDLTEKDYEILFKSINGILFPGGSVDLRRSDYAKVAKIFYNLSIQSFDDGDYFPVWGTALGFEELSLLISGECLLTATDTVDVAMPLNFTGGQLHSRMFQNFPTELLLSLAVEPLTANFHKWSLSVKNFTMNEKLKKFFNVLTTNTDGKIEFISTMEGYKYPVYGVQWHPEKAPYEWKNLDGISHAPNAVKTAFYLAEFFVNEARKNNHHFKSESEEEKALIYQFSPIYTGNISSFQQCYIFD
Briefly: hGH activity in chromatography fractions measured with 4-NH2-10-CH3PteGlu5. The note with it: substrate 4-NH2-10-CH3PteGlu5. The procedure: Mutant plasmids were used to transform E. colistrain BL21(DE3)pLysS to kanamycin resistance. Cultures (20 ml) were grown for 16 hours at 37° C., 225 rpm in tryptone-phosphate broth (Moore et al. 1993), containing 30 μg/ml kanamycin and 34 μg/ml chloramphenicol. An aliquot (6 ml) of this culture was used to inoculate 500 ml of the same medium. Cultures were incubated at 27° C., 225 rpm until the OD600nm was 0.5-0.6. Isopropyl β-D-thiogalactoside (IPTG) was added to a final concentration of 1 mM and cultures were incubated for a further 3 hours. Cells were harvested by centrifugation and stored at −80° C. Cells from 1 liter of broth were resuspended in 50 ml of 50 mM Tris/HCl pH 7.5 buffer containing 500 mM NaCl and Complete protease inhibitor cocktail (Boehringer Mannheim, Indianapolis, Ind.). The mixture was sonicated and clarified by centrifugation at 20,000 g for 30 minutes at 4° C. A 20-60% ammonium sulfate precipitate was resuspended in 50 mM sodium acetate, pH 5.8, 1 mM octyl-β-D-glucoside (OBG) and 5% glycerol (buffer A). […]

Data set [5] deals with T3, human gamma glutamyl hydrolase (hGH) (Homo sapiens, UniProt Q92820, H195A).
T3 construct: A cDNA encoding the 294 amino acid mature form of hGH protein with an N-terminal methionine preceding the first arginine residue; added N-terminal methionine (start codon) (N); made in house; host or cells: E. coli
T3 sequence (Q92820 25-318 H195A): T2 sequence (Q92820 25-318 C134A) with A110C, H171A
The experiment in a line: Activity of His 171 to Ala hGH mutant from E. coli expression system. The source says:
CPS contains two domains and catalyzes the synthesis of carbamoyl phosphate from bicarbonate, glutamine, and two molecules of MgATP. The smaller subunit is the site of glutamine hydrolysis to produce ammonia for deliver to the larger subunit. In agreement with the site directed mutagenesis study described above, the model predicts that Cys110 in hGH is analogous to Cys 269 in CPS, which functions as the active site nucleophile attacking the γ-carbonyl of glutamine to form a glutamyl thioester intermediate (Thoden et al. 1998). The model also predicts that His 220 and Glu 222 in hGH are the other two amino acids in the catalytic triad, corresponding to His 353 and Glu 355 in CPS. His 220 and Glu 222 are conserved in the human, rat and mouse glutamyl hydrolase sequences. In the proposed model for hGH, His 220 would activate Cys 110 and Glu 222 would stabilize the resulting positively charged imidizolium cation. […] His 312 in CPS points away from the catalytic triad and is involved in substrate binding not catalysis. When His 312 in CPS was conservatively mutated to Asn, the Km for the substrate was increased 200-fold (Miran et al. 1991). […] Further reinforcing evidence for this alignment model was obtained by running the Pfam HMM search program (Sonnhammer et al. 1998). The Pfam result has an E-value of 0.13 with the GATase model of class-I glutamine amidotransferases. […]

Positions count from the first letter of the chain named. Names and notes keep the numbering of the source.

B1: C110A: hGH variant with cysteine 110 replaced by alanine (protein)
chain: T2 sequence (Q92820 25-318 C134A) with K242N, T243P, N258K
Consider B1, for which the “Activity relative to wildtype enzyme” value in data set [1] is recorded as “less than 0.01 % of wildtype enzyme”. Further, the “Specific activity (nmol 4-NH2-10-CH3PteGlu2 hydrolyzed/min/mg protein)” value in data set [2] (200 μM 4-NH2-10-CH3PteGlu2 for 5 minutes, mean ± SD of 3 experiments) is reported as “no activity”. Besides, in data set [2] (purified E. coli-expressed proteins), the “hGH activity (in words)” value was “no activity”. For the same molecule, the “Activity on methotrexate polyglutamates” value in data set [3] is “inactive”. Further, the “hGH activity in SP cation exchange column fractions” value in data set [4] is listed as “no fractions contained hGH activity”.

B2: His171Ala: hGH mutant with His 171 changed to Ala (protein)
chain: T2 sequence (Q92820 25-318 C134A) with A110C, H171A, K242N, T243P, N258K
In the case of B2, the “hGH activity (in words)” value in data set [5] is given as “lack of activity”. For the same molecule, the “Activity on methotrexate tetraglutamate” value in data set [3] was “inactive”.
